Laboratory results taken from patent US20200317768A1 (published 2020).
Numbering of substitutions follows the chain as printed. Numbers in names are those of the source.

T1: cynomolgus monkey FcγRIIa3 extracellular domain, C-terminal His-tag (cynomolgus monkey)
T1 construct: also called cyno FcγRIIa3; FcgRIIa3; not shown: His-tag added to the C-terminus
T1 chain: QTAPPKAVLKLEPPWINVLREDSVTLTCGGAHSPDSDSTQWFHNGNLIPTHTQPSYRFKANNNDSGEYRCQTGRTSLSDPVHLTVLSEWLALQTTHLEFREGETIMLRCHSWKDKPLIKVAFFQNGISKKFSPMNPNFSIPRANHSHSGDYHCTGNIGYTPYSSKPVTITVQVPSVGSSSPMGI

T2: cynomolgus monkey FcγRIIb extracellular domain, C-terminal His-tag (cynomolgus monkey)
T2 construct: also called cyno FcγRIIb; cynoFcγRIIb; not shown: His-tag added to the C-terminus
T2 chain: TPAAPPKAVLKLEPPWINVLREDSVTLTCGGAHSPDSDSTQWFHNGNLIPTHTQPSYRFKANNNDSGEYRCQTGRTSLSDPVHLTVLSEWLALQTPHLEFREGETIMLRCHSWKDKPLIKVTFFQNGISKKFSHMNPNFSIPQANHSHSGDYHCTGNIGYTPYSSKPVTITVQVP

T3: cynomolgus monkey FcγRIIa2 extracellular domain, C-terminal His-tag (cynomolgus monkey)
T3 construct: also called cyno FcγRIIa2; FcgRIIa2; not shown: His-tag added to the C-terminus
T3 chain: T1 chain with I127K, K130N, P133H, R142Q

T4: human FcγRIIaR extracellular domain, C-terminal His-tag (human, UniProt P12318 34-217)
T4 construct: also called human FcγRIIa (type R); FcgRIIaR; not shown: His-tag added to the C-terminus
T4 chain: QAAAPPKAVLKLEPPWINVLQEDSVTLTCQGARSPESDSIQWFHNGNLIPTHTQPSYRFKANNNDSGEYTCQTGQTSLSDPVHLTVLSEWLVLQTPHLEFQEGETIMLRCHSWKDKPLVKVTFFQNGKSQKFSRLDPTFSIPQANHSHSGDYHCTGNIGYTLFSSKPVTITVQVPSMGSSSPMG

T5: human FcγRIIb extracellular domain, C-terminal His-tag (human, UniProt P31994 43-217)
T5 construct: also called FcgRIIb; not shown: His-tag added to the C-terminus
T5 sequence: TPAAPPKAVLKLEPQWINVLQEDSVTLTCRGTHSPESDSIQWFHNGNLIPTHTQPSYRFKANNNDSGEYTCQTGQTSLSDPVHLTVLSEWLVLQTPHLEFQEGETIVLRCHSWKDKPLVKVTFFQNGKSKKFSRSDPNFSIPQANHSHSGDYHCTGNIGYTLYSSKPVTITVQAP

T6: human FcγRIIaH extracellular domain, C-terminal His-tag (human, UniProt P12318 34-217)
T6 construct: also called human FcγRIIa (type H); FcgRIIaH; not shown: His-tag added to the C-terminus
T6 sequence: T4 chain with R134H

B1: MS1032LO06-SG1 (M103205H795-SG1/M103202L889-SK1) (antibody, human IgG1, kappa)
heavy: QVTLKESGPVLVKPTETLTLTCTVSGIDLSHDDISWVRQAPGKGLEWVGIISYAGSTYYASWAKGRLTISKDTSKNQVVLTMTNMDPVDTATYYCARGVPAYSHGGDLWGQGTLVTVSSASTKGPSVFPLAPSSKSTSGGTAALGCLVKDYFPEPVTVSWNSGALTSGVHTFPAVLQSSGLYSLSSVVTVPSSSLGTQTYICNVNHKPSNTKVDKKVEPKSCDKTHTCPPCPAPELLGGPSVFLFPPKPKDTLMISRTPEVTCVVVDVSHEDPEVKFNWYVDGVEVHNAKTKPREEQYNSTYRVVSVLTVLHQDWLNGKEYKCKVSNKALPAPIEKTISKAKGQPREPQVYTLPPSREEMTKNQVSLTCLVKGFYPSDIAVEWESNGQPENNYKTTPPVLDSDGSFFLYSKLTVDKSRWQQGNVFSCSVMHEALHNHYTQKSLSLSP
light: DIVMTQSPATLSLSPGERATLSCTSSQSVYHANWLSWFQQKPGQPPKLLIYWASTLAYGVPSRFSGSGSGTDFTLTISSLQPEDAATYYCAGGYGGGRYAFGQGTKVEIKRTVAAPSVFIFPPSDEQLKSGTASVVCLLNNFYPREAKVQWKVDNALQSGNSQESVTEQDSKDSTYSLSSTLTLSKADYEKHKVYACEVTHQGLSSPVTKSFNRGEC
notes: Anti-latent myostatin antibody
B2: MS1032LO06-PK55 (M103205H795-PK55/M103202L889-SK1) (antibody, human IgG1, kappa)
heavy: QVTLKESGPVLVKPTETLTLTCTVSGIDLSHDDISWVRQAPGKGLEWVGIISYAGSTYYASWAKGRLTISKDTSKNQVVLTMTNMDPVDTATYYCARGVPAYSHGGDLWGQGTLVTVSSASTKGPSVFPLAPSSKSTSGGTAALGCLVKDYFPEPVTVSWNSGALTSGVHTFPAVLQSSGLYSLSSVVTVPSSSLGTQTYICNVNHKPSNTKVDKKVEPKSCDKTHTCPPCPAPELLNGPSVFLFPPKPKDTLMISRTPEVTCVVVDVSDEDPEVKFNWYVDGVEVHNAKTKPREEQYNSTYRVVSVLTVLHRDWLNGKEYKCKVSNKALPKPIEKTISKAKGQRREPQVYTLPPSREEMTKNQVSLTCLVKGFYPSDIAVEWESNGQPENNYKTTPPVLDSDGSFFLYSKLTVDKSRWQQGNVFSCSVMHEALHNHYTQKSLSLSP
light: B1 light
notes: CH PK55 = SG1 with G236N/H268D/Q311R/A330K/P343R (EU numbering); also called MS103205H795-PK55
B3: MS1032LO06-PK57 (M103205H795-PK57/M103202L889-SK1) (antibody, human IgG1, kappa)
heavy: B2 heavy with R345P, N386R, D415R
light: B1 light
notes: CH PK57 = SG1 with G236N/H268D/Q311R/A330K/N384R/D413R (EU numbering); also called MS103205H795-PK57
B4: MS1032LO06-MY351 (M103205H795-MY351/M103202L889-SK1) (antibody, human IgG1, kappa)
heavy: B2 heavy with R345P, D415K
light: B1 light
notes: CH MY351 = SG1 with G236N/H268D/Q311R/A330K/D413K (EU numbering); also called MS103205H795-MY351
B5: MS1032LO06-MY352 (M103205H795-MY352/M103202L889-SK1) (antibody, human IgG1, kappa, name in EU numbering)
heavy: B2 heavy with R345P, D415R
light: B1 light
notes: Printed substitutions: G236N/H268D/Q311R/A330K/D413R (EU numbering); also called MS103205H795-MY352
B6: MS1032LO06-MY201 (M103205H795-MY201/M103202L889-SK1) (antibody, human IgG1, kappa)
heavy: B2 heavy with R313Q, R345P
light: B1 light
notes: CH MY201 = SG1 with G236N/H268D/A330K (EU numbering); also called MS103205H795-MY201
B7: MS1032LO06-PK56 (M103205H795-PK56/M103202L889-SK1) (antibody, human IgG1, kappa)
heavy: B2 heavy with D415R
light: B1 light
notes: CH PK56 = SG1 with G236N/H268D/Q311R/A330K/P343R/D413R (EU numbering); also called MS103205H795-PK56

Molecular target: T1, cynomolgus monkey FcγRIIa3 …
Assay: SPR (BIACORE), antibody captured, soluble FcgR as analyte, 25C
Procedure: (§1) The kinetic analysis of interactions between these antibodies and FcγR was carried out using BIACORE® T200 or BIACORE® 4000 (GE Healthcare). HBS-EP+ (GE Healthcare) was used as the running buffer, and the measurement temperature was set to 25° C. A chip produced by immobilizing Protein A. Protein A/G or mouse anti-human IgG kappa light chain (BD Biosciences) onto a Series S Sensor Chip CM4 or CM5 (GE Healthcare) by the amine-coupling method was used. […] After the measurement, the antibody captured on the chip was washed off by allowing reaction with 10 mM glycine-HCl, pH1.5 and 25 mM NaOH so that the chip was regenerated and used repeatedly. The sensorgrams obtained as measurement results were analyzed by the 1:1 Langmuir binding model using the BIACORE® Evaluation Software to calculate the binding rate constant ka (L/mol/s) and dissociation rate constant kd (l/s), and the dissociation constant KD (mol/L) was calculated from these values. […] Regarding such interactions, KD values were calculated using the following 1:1 binding model described in BIACORE® T100 Software Handbook BR1006-48 Edition AE.
(§2) The behavior of interacting molecules according to the 1:1 binding model on BIACORE® can be described by Equation 1: Req=C·R max/(KD+C)+RI, wherein, Req is a plot of steady-state binding levels to analyte concentration. C is concentration, RI is bulk refractive index contribution in the sample, and Rmax is analyte binding capacity of the surface. When this equation is rearranged, KD can be expressed as Equation 2: KD=C·Rmax/(Req−RI)−C. KD can be calculated by substituting the values of Rmax, RI, and C into Equation 1 or Equation 2. From the current measurement conditions, RI=0, C=2 μmol/L can be used.

Row | Kd [nM] | Binder
1 | 8600 | B1
2 | 2000 | B2
3 | 3100 | B3
4 | 2200 | B4
5 | 2200 | B5
6 | 1800 | B6
7 | 2500 | B7

Molecular target: T2, cynomolgus monkey FcγRIIb extracellular …
Assay: as above
Procedure: as §1, §2

Row | Kd [nM] | Binder
8 | 1900 | B1
9 | 360 | B2
10 | 520 | B3
11 | 380 | B4
12 | 420 | B5
13 | 330 | B6
14 | 500 | B7

Molecular target: T3, cynomolgus monkey FcγRIIa2 …
Assay: as above
Procedure: as §1, §2

Row | Kd [nM] | Binder
15 | 4700 | B1
16 | 1200 | B2
17 | 1700 | B3
18 | 1300 | B4
19 | 1300 | B5
20 | 1200 | B6
21 | 1500 | B7

Molecular target: T4, human FcγRIIaR extracellular domain, …
Assay: as above
Procedure: as §1, §2

Row | Kd [nM] | Binder
22 | 1000 | B1
23 | 1500 | B2
24 | 2200 | B3
25 | 1600 | B4
26 | 1600 | B5
27 | 1200 | B6
28 | 1900 | B7

molecular target: T5, human FcγRIIb extracellular domain, …; assay: as above
Procedure: as §1, §2

Row | Kd [nM] | Binder
29 | 4700 | B1
30 | 760 | B2
31 | 1200 | B3
32 | 970 | B4
33 | 1000 | B5
34 | 850 | B6
35 | 1000 | B7

molecular target: T6, human FcγRIIaH extracellular domain, …; assay: as above
Procedure: as §1, §2

Row | Kd [nM] | Binder
36 | 890 | B1
37 | 830 | B2
38 | 1300 | B3
39 | 1200 | B4
40 | 1200 | B5
41 | 980 | B6
42 | 1200 | B7

molecular target: T7, human FcγRIIIaV extracellular domain, C-terminal His-tag (human, UniProt P08637 17-208); assay: as above
T7 construct: also called FcgRIIIaV; not shown: His-tag added to the C-terminus
T7 sequence (P08637 17-208 F176V): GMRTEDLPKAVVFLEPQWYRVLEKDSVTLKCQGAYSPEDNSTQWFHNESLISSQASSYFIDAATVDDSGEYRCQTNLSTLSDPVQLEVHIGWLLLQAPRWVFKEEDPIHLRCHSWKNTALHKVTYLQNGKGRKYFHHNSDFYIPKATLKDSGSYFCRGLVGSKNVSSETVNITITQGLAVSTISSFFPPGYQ
Procedure: as §1, §2

Row | Kd [nM] | Binder
43 | 620 | B1
44 | 13000 | B2
45 | 23000 | B3
46 | 7400 | B4
47 | 11000 | B5
48 | 37000 | B6
49 | 10000 | B7

molecular target: T6, human FcγRIIaH extracellular domain, …; assay: SPR; KD of SG1 divided by KD of variant;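 note: relative to parent M103205H795-SG1 carrying the SG1 human heavy chain constant region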
Procedure: as §1

Row | KD fold (SG1 = 1) [fold] | Binder
50 | 1 | B1
51 | 1.1 | B2
52 | 0.7 | B3
53 | 0.7 | B4
54 | 0.7 | B5
55 | 0.9 | B6
56 | 0.8 | B7
